# B1: ICSM18-scFv (scFv, V domains shown)
# VH: EVQLQQSGPELVKPGSSVKISCKASRNTFTDYNLDWVKQSHGKTLEWIGNVYPNNGVTGYNQKFRGKATLTVDKSSSTAYMELHSLTSEDSAVYYCALYYYDVSYWGQGTLVTVSS
# VL: QIVLTQSPAIMSASPGEKVTMTCSASSSVSYMHWYQQKSGTSPKRWIYDTSKLASGVPARFSGSGSGTSYSLTISSMEAEDAATYFCHQWRSNPYTFGGGTKLEIK
# Target: wild-type mouse PrP (residues 23-231) displayed on the yeast surface (Mus musculus, UniProt P04925)
# Experiment: flow cytometry on cells
# Sequence of wild-type mouse PrP (residues 23-231) displayed on the yeast surface (P04925 23-231): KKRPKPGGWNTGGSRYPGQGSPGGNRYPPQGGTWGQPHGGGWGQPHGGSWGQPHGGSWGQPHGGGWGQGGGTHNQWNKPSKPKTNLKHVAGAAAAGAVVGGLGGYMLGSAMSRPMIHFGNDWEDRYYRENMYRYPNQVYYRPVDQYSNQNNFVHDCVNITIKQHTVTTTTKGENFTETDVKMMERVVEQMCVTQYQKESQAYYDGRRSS
binder,measurement,value
B1,Kd,153 nM
